{"source": "paper PMC7530383", "target": "actin (coated on the BLI biosensor)", "experiment": "BLI; APS biosensor coated with actin; rTLP-1 in PBS pH 7.4 with 0.05% Tween 20 and 0.1% BSA; Octet RED, 25 °C; 300 s association, 120 s dissociation; n = 3"}
{"substance": "Recombinant transgelin‐like protein 1 (rTLP‐1) from Mytilus coruscus (natural protein)", "values": [{"measurement": "Kd", "result": 9.45, "unit": "µM"}]}
